According to article PMC9820253, “Integration Host Factor Binds DNA Holliday Junctions”:
Substitutions are numbered along the chain they refer to.

Assays:
[1] = biological target: T1, Integration Host Factor (IHF) (Escherichia coli (purified from E. coli …, UniProt P0A6X7;P0A6Y1 1-99;1-94)); assay: EMSA; 1 mM Mg2+; apparent; 5 mM Tris-HCl pH 7.4-7.6, 70 mM KCl, 0.1 mM EDTA, 0.5-10% ethylene glycol, fluorescence at 10 C; Mg buffer: 5 mM Tris-HCl pH 7.4, 1 mM MgCl2, 10% ethylene glycol; stopped flow 20 C with 0.01% NP-40; conditions: protein: recombinant; copies: 1;1; label: none for EMSA (SYBR Green); 5' TAMRA for fluorescence intensity; donor-acceptor pair for stopped flow; four-way junction of 4 strands (20 nt), four 10 bp arms
T1 sequence (P0A6X7 whole entry, chain 1 of 2): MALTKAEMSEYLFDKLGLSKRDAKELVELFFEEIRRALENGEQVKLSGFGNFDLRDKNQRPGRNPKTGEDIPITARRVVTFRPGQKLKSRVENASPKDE
T1 sequence (P0A6Y1 whole entry, chain 2 of 2): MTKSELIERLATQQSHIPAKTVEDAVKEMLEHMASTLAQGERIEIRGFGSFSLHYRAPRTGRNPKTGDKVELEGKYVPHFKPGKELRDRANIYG

[2] = biological target: T1, Integration Host Factor (IHF); assay: EMSA; 70 mM KCl; apparent; 5 mM Tris-HCl pH 7.4-7.6, 70 mM KCl, 0.1 mM EDTA, 0.5-10% ethylene glycol, fluorescence at 10 C; Mg buffer: 5 mM Tris-HCl pH 7.4, 1 mM MgCl2, 10% ethylene glycol; stopped flow 20 C with 0.01% NP-40; conditions: protein: recombinant, copies: 1;1, label: none for EMSA (SYBR Green)
[3] = biological target: T1, Integration Host Factor (IHF); assay: fluorescence anisotropy; 1 mM Mg2+?; 5 mM Tris-HCl pH 7.4-7.6, 70 mM KCl, 0.1 mM EDTA, 0.5-10% ethylene glycol, fluorescence at 10 C; Mg buffer: 5 mM Tris-HCl pH 7.4, 1 mM MgCl2, 10% ethylene glycol; stopped flow 20 C with 0.01% NP-40; conditions: protein: recombinant; copies: 1;1; label: none for EMSA (SYBR Green); 5' TAMRA for fluorescence intensity; donor-acceptor pair for stopped flow; four-way junction of 4 strands (20 nt), four 10 bp arms
[4] = biological target: T1, Integration Host Factor (IHF); assay: fluorescence intensity; 70 mM KCl; 5'-TAMRA; 5 mM Tris-HCl pH 7.4-7.6, 70 mM KCl, 0.1 mM EDTA, 0.5-10% ethylene glycol, fluorescence at 10 C; Mg buffer: 5 mM Tris-HCl pH 7.4, 1 mM MgCl2, 10% ethylene glycol; stopped flow 20 C with 0.01% NP-40; conditions: protein: recombinant; copies: 1;1; label: none for EMSA (SYBR Green); 5' TAMRA for fluorescence intensity; donor-acceptor pair for stopped flow; four-way junction of 4 strands (20 nt), four 10 bp arms
[5] = biological target: T1, Integration Host Factor (IHF); assay: EMSA; 70 mM KCl, no Mg2+; 5 mM Tris-HCl pH 7.4-7.6, 70 mM KCl, 0.1 mM EDTA, 0.5-10% ethylene glycol, fluorescence at 10 C; Mg buffer: 5 mM Tris-HCl pH 7.4, 1 mM MgCl2, 10% ethylene glycol; stopped flow 20 C with 0.01% NP-40; conditions: protein: recombinant; copies: 1;1; label: none for EMSA (SYBR Green); immobile four-way junction of 4 strands (34 nt), four 17 bp arms
[6] = biological target: T1, Integration Host Factor (IHF); assay: fluorescence intensity; 70 mM KCl; 0.5 nM DNA; printed as <=2.2; 5 mM Tris-HCl pH 7.4-7.6, 70 mM KCl, 0.1 mM EDTA, 0.5-10% ethylene glycol, fluorescence at 10 C; Mg buffer: 5 mM Tris-HCl pH 7.4, 1 mM MgCl2, 10% ethylene glycol; stopped flow 20 C with 0.01% NP-40; conditions: protein: recombinant; copies: 1;1; label: 6-MI; immobile four-way junction of 4 strands (34 nt), four 17 bp arms
[7] = biological target: T1, Integration Host Factor (IHF); assay: fluorescence anisotropy; 70 mM KCl; 2 nM DNA; 5 mM Tris-HCl pH 7.4-7.6, 70 mM KCl, 0.1 mM EDTA, 0.5-10% ethylene glycol, fluorescence at 10 C; Mg buffer: 5 mM Tris-HCl pH 7.4, 1 mM MgCl2, 10% ethylene glycol; stopped flow 20 C with 0.01% NP-40; conditions: protein: recombinant; copies: 1;1; label: fluorescein (end); immobile four-way junction of 4 strands (34 nt), four 17 bp arms
[8] = biological target: T1, Integration Host Factor (IHF); assay: fluorescence intensity; 70 mM KCl; end-labeled; 5 mM Tris-HCl pH 7.4-7.6, 70 mM KCl, 0.1 mM EDTA, 0.5-10% ethylene glycol, fluorescence at 10 C; Mg buffer: 5 mM Tris-HCl pH 7.4, 1 mM MgCl2, 10% ethylene glycol; stopped flow 20 C with 0.01% NP-40; conditions: protein: recombinant, copies: 1;1, label: none for EMSA (SYBR Green), immobile four-way junction of 4 strands, four 17 bp arms

B1: J20 junction (structured_DNA)
DNA 1: CCACCGCTCAACTCAACTGC
DNA 2: GCAGTTGAGTCCTTGCTAGG
DNA 3: CCTAGCAAGGGGCTGCTACC
DNA 4: GGTAGCAGCCTGAGCGGTGG
What does the source list for B1?
Kd [1]: 0.514 ± 0.141 µM; Kd ([2]; 5' TAMRA for fluorescence intensity, donor-acceptor pair for stopped flow, four-way junction of 4 strands (20 nt), four 10 bp arms): 0.17 ± 0.04 µM; Kd [3]: 0.043 ± 0.011 µM; Kd [4]: 0.0044 ± 0.0005 µM

B2: J34 junction (structured_DNA)
DNA 1: CCTTCAACCACCGCTCAACTCAACTGCAGTCTGG
DNA 2: CCAGACTGCAGTTGAGTCCTTGCTAGGACGGAGG
DNA 3: CCTCCGTCCTAGCAAGGGGCTGCTACCGGAAGGG
DNA 4: CCCTTCCGGTAGCAGCCTGAGCGGTGGTTGAAGG
With B2 as the binder, how does the Kd [5] read?
Its Kd is 0.058 ± 0.036 µM.

B3: J34 junction, 6-MI labeled (structured_DNA)
DNA 1: B2 DNA 1
DNA 2: B2 DNA 2
DNA 3: B2 DNA 3
DNA 4: B2 DNA 4
modifications: 6-methylisoxanthopterin (6-MI) nucleoside
How did the Kd [6] turn out when B3 was run?
Its Kd is under 0.0022 µM.

B4: J34 junction, fluorescein end-labeled (structured_DNA)
DNA 1: B2 DNA 1
DNA 2: B2 DNA 2
DNA 3: B2 DNA 3
DNA 4: B2 DNA 4
Which Kd [7] does the source give for B4 here?
Its Kd is 0.002 µM.

B5: JH1 junction (structured_DNA)
DNA 1: CCTTCAACCACCGCTCATGATTACTGCAGTCTGG
DNA 2: CCAGACTGCAGTAATCAACTACTTAGGACGGAGG
DNA 3: B2 DNA 3 with G12A, C13G, A14T, G17T
DNA 4: B2 DNA 4 with C22T
What does the source list for B5?
Kd ([2]; end label for fluorescence, immobile four-way junction of 4 strands, four 17 bp arms): 0.065 ± 0.008 µM; Kd [8]: 0.0092 ± 0.002 µM
